We go through one substance from patent US20240228572A1, “LONG ACTING GLUCAGON RECEPTOR SELECTIVE PEPTIDES AND METHODS OF USE” (i2o Therapeutics, Inc., priority 2020, published 2024).

The assay deals with hGIPR (human) (UniProt P48546). The assay is described as follows: cell-based or functional assay.
hGIPR (human), sequence (P48546 22-466): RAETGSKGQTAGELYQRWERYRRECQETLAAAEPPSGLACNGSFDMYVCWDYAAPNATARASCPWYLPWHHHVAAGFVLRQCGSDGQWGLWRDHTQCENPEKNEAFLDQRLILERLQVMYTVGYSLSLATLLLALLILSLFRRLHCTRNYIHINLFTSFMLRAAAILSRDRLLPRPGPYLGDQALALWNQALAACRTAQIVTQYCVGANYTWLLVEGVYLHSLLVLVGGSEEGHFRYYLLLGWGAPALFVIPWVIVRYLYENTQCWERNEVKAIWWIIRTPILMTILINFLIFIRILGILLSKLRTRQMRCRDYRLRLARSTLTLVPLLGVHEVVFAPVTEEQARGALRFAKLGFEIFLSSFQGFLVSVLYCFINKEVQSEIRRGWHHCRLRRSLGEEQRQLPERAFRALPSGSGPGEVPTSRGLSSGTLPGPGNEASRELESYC

As to “hGIP (from UniProt P09681 52-93) (peptide)”, the pEC50, cAMP accumulation (pEC50 (-log M)) is 11.8.
